Experiments:
[1] = target: fully glycosylated CmeA (g2CmeA), soluble periplasmic His6-tagged CmeA (Campylobacter jejuni) (UniProt Q0PBE3); test: SPR; g0CmeA (1,040 RU) or g2CmeA (900 RU) immobilised on a CM5 chip by amine coupling; CmeC flowed over in 2-fold dilutions from 2 × 10^-7 M; HBS-PE (10 mM HEPES pH 7.4, 3 mM EDTA, 0.005% P20), 25°C, 30 µl/min; constants are of the slow interactions only, the fast interactions could not be fitted
[2] = target: nonglycosylated CmeA (g0CmeA), soluble periplasmic His6-tagged CmeA (Campylobacter jejuni) (UniProt Q0PBE3); test: as above
[3] = target: CmeC (outer membrane channel of the CmeABC efflux pump) (UniProt Q0PBE5); test: SPR (Biacore, CM5 chip); details: pH 7.4; 25°C; not stated (no salt is listed in the buffer recipes); pH 7.4: 10 mM HEPES (HBS-PE); pH 6.0: 10 mM MES

Row | Substance | Kd [1] [nM] | koff [1] [s⁻¹] | kon [1] [M⁻¹ s⁻¹] | Kd [2] [nM] | koff [2] [s⁻¹] | kon [2] [M⁻¹ s⁻¹] | koff [3] | kon [3]
1 | CmeC, outer membrane channel of CmeABC, 10×His-tagged, expressed in E. coli (natural protein) | 5 | 0.00075 | 150000 | 17 | 0.00085 | 50000 | – | –
2 | g0CmeA (non-glycosylated CmeA, periplasmic fusion protein of the CmeABC efflux pump) | – | – | – | – | – | – | 8.5 ± 1.0 × 10^–4 s^–1 | 5.0 ± 0.8 × 10^4 (M^–1 s^–1)
3 | g2CmeA (fully N-glycosylated CmeA) | – | – | – | – | – | – | 7.5 ± 0.6 × 10^–4 s^–1 | 1.5 ± 0.04 × 10^5 (M^–1 s^−1)
